Test [1] concerns FLAG-tagged HP1α. The experiment in a line: pull-down with Strep-tagged KAP1, Western blot. The format is binding. The following applies: Strep-tagged full-length KAP1 mutant, HCT116 cells; 3 biological replicates. As for the experimental part: For all AP experiments, HCT116 cells were seeded in 10 cm plates (~4 million cells per dish) and transfected with Strep- and Flag-tagged plasmids one-day after seeding cells. Two days post-transfection, cells were collected in PBS and lysed with passive lysis buffer (PLB: 50 mM Tris-HCl pH 7.5, 150 mM NaCl, 1 mM DTT, 1.0% NP-40, 1.5 mM MgCl2, 5% v/v glycerol, and 1X complete, Mini EDTA-free, EASYpack Protease Inhibitor [Roche, Cat# 4693159001]) by resuspending cells in PLB, vortexing briefly, nutating for 15 min at 4 °C, and centrifuging the lysate (10,000 × g, 10 min, 4 °C). Strep-Tactin superflow resin (IBA Life Sciences, Cat# 2-1208-010), was equilibrated by centrifuging beads (2000 RPM, 2 min, 4 °C), removing storage buffer, and washing three times with PLB with nutation for 5 min at 4 °C. Beads were volumed back to their original volume, and 40 µL beads were used per AP and bound for 2 h. Beads were then washed with AP Wash Buffer (50 mM Tris-HCl pH 7.5, 250 mM NaCl, 1 mM DTT, 0.2% NP-40, 1.5 mM MgCl2, and 5% v/v glycerol), and eluted with Strep-tag Elution Buffer containing D-Desthiobiotin (IBA Life Sciences, Cat# 2-1000-025). […]
Tryptophan fluorescence data are presented as average of three independent measurements ±SD. […]
Background: A western blot detects proteins with antibodies after separation by electrophoresis.

Test [2] has as its system endogenous retroelements in KAP1 cKO ESCs. In words: ATAC-seq chromatin accessibility. The format is cell-based, mouse. The following applies: exogenous expression in KAP1 cKO ESCs, 2 μg/mL doxycycline, 2 μM 4-OHT 48 h. How it is done: ESCs were maintained under standard conditions on gelatin-coated plates at 37 °C at 5% CO2 in Knockout DMEM (Thermo Fisher) supplemented with NEAA, GlutaMAX, penicillin/streptomycin (Thermo Fisher), 15% ESC-screened fetal bovine serum (Hyclone), 0.1 mM 2-mercaptoethanol (Fisher), and leukemia-inhibitory factor (LIF). Generation of KAP1 cKO ESCs has been described previously. The piggybac transposon system was used to stably integrate transgenic Flag-tagged WT or V488E mutant KAP1 under control of an rtTA promoter (Systems Biosciences, PB-TRE-EGFP-EF1a-rtTA) into the inducible KAP1 cKO ESCs. Exogenous expression of WT or V488E mutant KAP1 was induced with 2 μg/mL doxycycline for 48 h and maintained in doxycycline prior to endogenous KAP1 deletion. KAP1 deletion was induced with 2 μM 4-OHT (Sigma) treatment for 48 h. […]
The modified ATAC-sequencing protocol Omni-ATAC was performed. […] Number of further PCR cycles required was determined using KAPA Library Quantification Kit (KK4854). […]
Quality of datasets was assessed using the FastQC tool. Raw reads were adapter and quality trimmed using Trimgalore. Trimmed reads were aligned to the mouse reference genome (mm10) with Bowtie2. Multimapping reads were randomly assigned. Optical duplicate reads were filtered using Picard (https://broadinstitute.github.io/picard/). Reads which mapped to the mitochondrial genome were removed with Samtools. […]

B1: V488E KAP1: V488E mutant of KAP1, impaired in binding to HP1 (protein)
chain: MAASAAAASAAAASAASGSPGPGEGSAGGEKRSTAPSAAASASASAAASSPAGGGAEALELLEHCGVCRERLRPEREPRLLPCLHSACSACLGPAAPAAANSSGDGGAAGDGTVVDCPVCKQQCFSKDIVENYFMRDSGSKAATDAQDANQCCTSCEDNAPATSYCVECSEPLCETCVEAHQRVKYTKDHTVRSTGPAKSRDGERTVYCNVHKHEPLVLFCESCDTLTCRDCQLNAHKDHQYQFLEDAVRNQRKLLASLVKRLGDKHATLQKSTKEVRSSIRQVSDVQKRVQVDVKMAILQIMKELNKRGRVLVNDAQKVTEGQQERLERQHWTMTKIQKHQEHILRFASWALESDNNTALLLSKKLIYFQLHRALKMIVDPVEPHGEMKFQWDLNAWTKSAEAFGKIVAERPGTNSTGPAPMAPPRAPGPLSKQGSGSSQPMEVQEGYGFGSGDDPYSSAEPHVSGVKRSRSGEGEVSGLMRKVPRESLERLDLDLTADSQPPVFKVFPGSTTEDYNLIVIERGAAAAATGQPGTAPAGTPGAPPLAGMAIVKEEETEAAIGAPPTATEGPETKPVLMALAEGPGAEGPRLASPSGSTSSGLEVVAPEGTSAPGGGPGTLDDSATICRVCQKPGDLVMCNQCEFCFHLDCHLPALQDVPGEEWSCSLCHVLPDLKEEDGSLSLDGADSTGVVAKLSPANQRKCERVLLALFCHEPCRPLHQLATDSTFSLDQPGGTLDLTLIRARLQEKLSPPYSSPQEFAQDVGRMFKQFNKLTEDKADVQSIIGLQRFFETRMNEAFGDTKFSAVLVEPPPMSLPGAGLSSQELSGGPGDGP
modifications: left off: Strep, end not stated, kept
As to B1, in test [1], the “pull-down of FLAG-tagged HP1α” value is recorded as “eliminated binding of exogenously expressed FLAG-tagged HP1α”. For the same molecule, the “restoration of closed chromatin at IAPEz, MERVK10C and ETn” value in test [2] is “could not restore a closed chromatin state to the same extent observed with expression of WT KAP1”.

The values above are taken from paper PMC12126490, “The HP1 box of KAP1 organizes HP1α for silencing of endogenous retroviral elements in embryonic stem cells” (Nature Communications, 2025).
